{"source": "the RNAGym collection of RNA variant scans (doi:10.7554/elife.80360)", "parents": {"B1": {"name": "HDV Ribozyme (parent)", "chain": "GGCCGGCAUGGUCCCAGCCUCCUCGCUGGCGCCGGCUGGGCAACAUUCCGAGGGGACCGUCCCCUCGGUAAUGGCGAAUGGGACCCA"}}}
{"variants_of": "B1", "test": "self-cleavage, relative activity (ratio to wild type); higher = more cleavage; co-transcriptional"}
{"variant": "GGCCGGCAUGGUCCCAGCCUCCUCGCUGGCGCCGGCUGGGCAACAUUCCGAGGGGACCGUCCCCUCGGUAAUGGCGAAUCGGACACA", "self-cleavage": 0.117}
{"variant": "GGCCGGCAUGGUCCCAGCCUCCUCGCUGGCGCCGGCUGGGCAACAUUCCGAGGGGACCGUCCCCUCGGUAAUGGCGAAUCGGACUCA", "self-cleavage": 0.194}
{"variant": "GGCCGGCAUGGUCCCAGCCUCCUCGCUGGCGCCGGCUGGGCAACAUUCCGAGGGGACCGUCCCCUCGGUAAUGGCGAAGGGGACCCC", "self-cleavage": 0.656}
{"variant": "GGCCGGCAUGGUCCCAGCCUCCUCGCUGGCGCCGGCUGGGCAACAUUCCGAGGGGACCGUCCCCUCGGUAAUGGCGAAGGGGACCCG", "self-cleavage": 0.669}
{"variant": "GGCCGGCAUGGUCCCAGCCUCCUCGCUGGCGCCGGCUGGGCAACAUUCCGAGGGGACCGUCCCCUCGGUAAUGGCGAAGGGGACCCU", "self-cleavage": 0.511}
{"variant": "GGCCGGCAUGGUCCCAGCCUCCUCGCUGGCGCCGGCUGGGCAACAUUCCGAGGGGACCGUCCCCUCGGUAAUGGCGAACCGGACCCA", "self-cleavage": 0.208}
{"variant": "GGCCGGCAUGGUCCCAGCCUCCUCGCUGGCGCCGGCUGGGCAACAUUCCGAGGGGACCGUCCCCUCGGUAAUGGCGAAUAGGACGCA", "self-cleavage": 0.312}
{"variant": "GGCCGGCAUGGUCCCAGCCUCCUCGCUGGCGCCGGCUGGGCAACAUUCCGAGGGGACCGUCCCCUCGGUAAUGGCGAAUAGGACUCA", "self-cleavage": 0.339}
{"variant": "GGCCGGCAUGGUCCCAGCCUCCUCGCUGGCGCCGGCUGGGCAACAUUCCGAGGGGACCGUCCCCUCGGUAAUGGCGAACGGGAUCCA", "self-cleavage": 0.332}
{"variant": "GGCCGGCAUGGUCCCAGCCUCCUCGCUGGCGCCGGCUGGGCAACAUUCCGAGGGGACCGUCCCCUCGGUAAUGGCGAACGGGAGCCA", "self-cleavage": 0.214}
{"variant": "GGCCGGCAUGGUCCCAGCCUCCUCGCUGGCGCCGGCUGGGCAACAUUCCGAGGGGACCGUCCCCUCGGUAAUGGCGAACGGGACUCA", "self-cleavage": 0.499}
{"variant": "GGCCGGCAUGGUCCCAGCCUCCUCGCUGGCGCCGGCUGGGCAACAUUCCGAGGGGACCGUCCCCUCGGUAAUGGCGAAGGGGACCGA", "self-cleavage": 0.712}
{"variant": "GGCCGGCAUGGUCCCAGCCUCCUCGCUGGCGCCGGCUGGGCAACAUUCCGAGGGGACCGUCCCCUCGGUAAUGGCGAAGGGGACCUA", "self-cleavage": 0.739}
{"variant": "GGCCGGCAUGGUCCCAGCCUCCUCGCUGGCGCCGGCUGGGCAACAUUCCGAGGGGACCGUCCCCUCGGUAAUGGCGAAAGGGACCAA", "self-cleavage": 0.688}
{"variant": "GGCCGGCAUGGUCCCAGCCUCCUCGCUGGCGCCGGCUGGGCAACAUUCCGAGGGGACCGUCCCCUCGGUAAUGGCGAACGUGACCCA", "self-cleavage": 0.225}
{"variant": "GGCCGGCAUGGUCCCAGCCUCCUCGCUGGCGCCGGCUGGGCAACAUUCCGAGGGGACCGUCCCCUCGGUAAUGGCGAACGCGACCCA", "self-cleavage": 0.189}
{"variant": "GGCCGGCAUGGUCCCAGCCUCCUCGCUGGCGCCGGCUGGGCAACAUUCCGAGGGGACCGUCCCCUCGGUAAUGGCGAACGAGACCCA", "self-cleavage": 0.208}
{"variant": "GGCCGGCAUGGUCCCAGCCUCCUCGCUGGCGCCGGCUGGGCAACAUUCCGAGGGGACCGUCCCCUCGGUAAUGGCGAAUAGGACCUA", "self-cleavage": 0.409}
{"variant": "GGCCGGCAUGGUCCCAGCCUCCUCGCUGGCGCCGGCUGGGCAACAUUCCGAGGGGACCGUCCCCUCGGUAAUGGCGAAUAGGACCAA", "self-cleavage": 0.532}
{"variant": "GGCCGGCAUGGUCCCAGCCUCCUCGCUGGCGCCGGCUGGGCAACAUUCCGAGGGGACCGUCCCCUCGGUAAUGGCGAAAGGGAUCCA", "self-cleavage": 0.314}
{"variant": "GGCCGGCAUGGUCCCAGCCUCCUCGCUGGCGCCGGCUGGGCAACAUUCCGAGGGGACCGUCCCCUCGGUAAUGGCGAACGGGACCGA", "self-cleavage": 0.284}
{"variant": "GGCCGGCAUGGUCCCAGCCUCCUCGCUGGCGCCGGCUGGGCAACAUUCCGAGGGGACCGUCCCCUCGGUAAUGGCGAACGGGACCUA", "self-cleavage": 0.696}
{"variant": "GGCCGGCAUGGUCCCAGCCUCCUCGCUGGCGCCGGCUGGGCAACAUUCCGAGGGGACCGUCCCCUCGGUAAUGGCGAAUCCGACCCA", "self-cleavage": 0.186}
{"variant": "GGCCGGCAUGGUCCCAGCCUCCUCGCUGGCGCCGGCUGGGCAACAUUCCGAGGGGACCGUCCCCUCGGUAAUGGCGAAUCUGACCCA", "self-cleavage": 0.231}
{"variant": "GGCCGGCAUGGUCCCAGCCUCCUCGCUGGCGCCGGCUGGGCAACAUUCCGAGGGGACCGUCCCCUCGGUAAUGGCGAAUAGAACCCA", "self-cleavage": 0.244}
{"variant": "GGCCGGCAUGGUCCCAGCCUCCUCGCUGGCGCCGGCUGGGCAACAUUCCGAGGGGACCGUCCCCUCGGUAAUGGCGAAUAGCACCCA", "self-cleavage": 0.0978}
{"variant": "GGCCGGCAUGGUCCCAGCCUCCUCGCUGGCGCCGGCUGGGCAACAUUCCGAGGGGACCGUCCCCUCGGUAAUGGCGAAAGGAACCCA", "self-cleavage": 0.227}
{"variant": "GGCCGGCAUGGUCCCAGCCUCCUCGCUGGCGCCGGCUGGGCAACAUUCCGAGGGGACCGUCCCCUCGGUAAUGGCGAAGGGGAACCA", "self-cleavage": 0.38}
{"variant": "GGCCGGCAUGGUCCCAGCCUCCUCGCUGGCGCCGGCUGGGCAACAUUCCGAGGGGACCGUCCCCUCGGUAAUGGCGAAGGGGAGCCA", "self-cleavage": 0.185}
{"variant": "GGCCGGCAUGGUCCCAGCCUCCUCGCUGGCGCCGGCUGGGCAACAUUCCGAGGGGACCGUCCCCUCGGUAAUGGCGAAGGUGACCCA", "self-cleavage": 0.225}
{"variant": "GGCCGGCAUGGUCCCAGCCUCCUCGCUGGCGCCGGCUGGGCAACAUUCCGAGGGGACCGUCCCCUCGGUAAUGGCGAAGGAGACCCA", "self-cleavage": 0.146}
{"variant": "GGCCGGCAUGGUCCCAGCCUCCUCGCUGGCGCCGGCUGGGCAACAUUCCGAGGGGACCGUCCCCUCGGUAAUGGCGAACGGGCCCCA", "self-cleavage": 0.374}
{"variant": "GGCCGGCAUGGUCCCAGCCUCCUCGCUGGCGCCGGCUGGGCAACAUUCCGAGGGGACCGUCCCCUCGGUAAUGGCGAACGGGUCCCA", "self-cleavage": 0.323}
{"variant": "GGCCGGCAUGGUCCCAGCCUCCUCGCUGGCGCCGGCUGGGCAACAUUCCGAGGGGACCGUCCCCUCGGUAAUGGCGAAUCGGACCCA", "self-cleavage": 0.187}
{"variant": "GGCCGGCAUGGUCCCAGCCUCCUCGCUGGCGCCGGCUGGGCAACAUUCCGAGGGGACCGUCCCCUCGGUAAUGGCGAAUAGGACCCA", "self-cleavage": 0.348}
{"variant": "GGCCGGCAUGGUCCCAGCCUCCUCGCUGGCGCCGGCUGGGCAACAUUCCGAGGGGACCGUCCCCUCGGUAAUGGCGAAGAGGACCCA", "self-cleavage": 0.249}
{"variant": "GGCCGGCAUGGUCCCAGCCUCCUCGCUGGCGCCGGCUGGGCAACAUUCCGAGGGGACCGUCCCCUCGGUAAUGGCGAAGUGGACCCA", "self-cleavage": 0.366}
{"variant": "GGCCGGCAUGGUCCCAGCCUCCUCGCUGGCGCCGGCUGGGCAACAUUCCGAGGGGACCGUCCCCUCGGUAAUGGCGAAUCGGACCGA", "self-cleavage": 0.192}
{"variant": "GGCCGGCAUGGUCCCAGCCUCCUCGCUGGCGCCGGCUGGGCAACAUUCCGAGGGGACCGUCCCCUCGGUAAUGGCGAAUCGCACCCA", "self-cleavage": 0.166}
{"variant": "GGCCGGCAUGGUCCCAGCCUCCUCGCUGGCGCCGGCUGGGCAACAUUCCGAGGGGACCGUCCCCUCGGUAAUGGCGAAUCGAACCCA", "self-cleavage": 0.0824}
{"variant": "GGCCGGCAUGGUCCCAGCCUCCUCGCUGGCGCCGGCUGGGCAACAUUCCGAGGGGACCGUCCCCUCGGUAAUGGCGAAUCGGGCCCA", "self-cleavage": 0.102}
{"variant": "GGCCGGCAUGGUCCCAGCCUCCUCGCUGGCGCCGGCUGGGCAACAUUCCGAGGGGACCGUCCCCUCGGUAAUGGCGAAACGGACCCA", "self-cleavage": 0.204}
{"variant": "GGCCGGCAUGGUCCCAGCCUCCUCGCUGGCGCCGGCUGGGCAACAUUCCGAGGGGACCGUCCCCUCGGUAAUGGCGAAAAGGACCCA", "self-cleavage": 0.234}
{"variant": "GGCCGGCAUGGUCCCAGCCUCCUCGCUGGCGCCGGCUGGGCAACAUUCCGAGGGGACCGUCCCCUCGGUAAUGGCGAACGGGACCCC", "self-cleavage": 0.35}
{"variant": "GGCCGGCAUGGUCCCAGCCUCCUCGCUGGCGCCGGCUGGGCAACAUUCCGAGGGGACCGUCCCCUCGGUAAUGGCGAACGGGACCCG", "self-cleavage": 0.47}
{"variant": "GGCCGGCAUGGUCCCAGCCUCCUCGCUGGCGCCGGCUGGGCAACAUUCCGAGGGGACCGUCCCCUCGGUAAUGGCGAACGGGACCCU", "self-cleavage": 0.373}
{"variant": "GGCCGGCAUGGUCCCAGCCUCCUCGCUGGCGCCGGCUGGGCAACAUUCCGAGGGGACCGUCCCCUCGGUAAUGGCGAAGGGGGCCCA", "self-cleavage": 0.138}
{"variant": "GGCCGGCAUGGUCCCAGCCUCCUCGCUGGCGCCGGCUGGGCAACAUUCCGAGGGGACCGUCCCCUCGGUAAUGGCGAACGGAACCCA", "self-cleavage": 0.133}
{"variant": "GGCCGGCAUGGUCCCAGCCUCCUCGCUGGCGCCGGCUGGGCAACAUUCCGAGGGGACCGUCCCCUCGGUAAUGGCGAAGGGAACCCA", "self-cleavage": 0.0875}
{"variant": "GGCCGGCAUGGUCCCAGCCUCCUCGCUGGCGCCGGCUGGGCAACAUUCCGAGGGGACCGUCCCCUCGGUAAUGGCGAAGGGUACCCA", "self-cleavage": 0.271}
{"variant": "GGCCGGCAUGGUCCCAGCCUCCUCGCUGGCGCCGGCUGGGCAACAUUCCGAGGGGACCGUCCCCUCGGUAAUGGCGAAAGGGACUCA", "self-cleavage": 0.855}
{"variant": "GGCCGGCAUGGUCCCAGCCUCCUCGCUGGCGCCGGCUGGGCAACAUUCCGAGGGGACCGUCCCCUCGGUAAUGGCGAAUCGGACCCG", "self-cleavage": 0.211}
{"variant": "GGCCGGCAUGGUCCCAGCCUCCUCGCUGGCGCCGGCUGGGCAACAUUCCGAGGGGACCGUCCCCUCGGUAAUGGCGAAUCGGACCCC", "self-cleavage": 0.237}
{"variant": "GGCCGGCAUGGUCCCAGCCUCCUCGCUGGCGCCGGCUGGGCAACAUUCCGAGGGGACCGUCCCCUCGGUAAUGGCGAAUAGGACCCU", "self-cleavage": 0.441}
{"variant": "GGCCGGCAUGGUCCCAGCCUCCUCGCUGGCGCCGGCUGGGCAACAUUCCGAGGGGACCGUCCCCUCGGUAAUGGCGAAUAGGACCCC", "self-cleavage": 0.33}
{"variant": "GGCCGGCAUGGUCCCAGCCUCCUCGCUGGCGCCGGCUGGGCAACAUUCCGAGGGGACCGUCCCCUCGGUAAUGGCGAAUAGGUCCCA", "self-cleavage": 0.229}
{"variant": "GGCCGGCAUGGUCCCAGCCUCCUCGCUGGCGCCGGCUGGGCAACAUUCCGAGGGGACCGUCCCCUCGGUAAUGGCGAAUAGGGCCCA", "self-cleavage": 0.396}
{"variant": "GGCCGGCAUGGUCCCAGCCUCCUCGCUGGCGCCGGCUGGGCAACAUUCCGAGGGGACCGUCCCCUCGGUAAUGGCGAAUACGACCCA", "self-cleavage": 0.106}
{"variant": "GGCCGGCAUGGUCCCAGCCUCCUCGCUGGCGCCGGCUGGGCAACAUUCCGAGGGGACCGUCCCCUCGGUAAUGGCGAAUAUGACCCA", "self-cleavage": 0.0936}
{"variant": "GGCCGGCAUGGUCCCAGCCUCCUCGCUGGCGCCGGCUGGGCAACAUUCCGAGGGGACCGUCCCCUCGGUAAUGGCGAAUAGGAUCCA", "self-cleavage": 0.197}
{"variant": "GGCCGGCAUGGUCCCAGCCUCCUCGCUGGCGCCGGCUGGGCAACAUUCCGAGGGGACCGUCCCCUCGGUAAUGGCGAAGGGGACCCA", "self-cleavage": 0.742}
{"variant": "GGCCGGCAUGGUCCCAGCCUCCUCGCUGGCGCCGGCUGGGCAACAUUCCGAGGGGACCGUCCCCUCGGUAAUGGCGAACGGGACCCA", "self-cleavage": 0.438}
{"variant": "GGCCGGCAUGGUCCCAGCCUCCUCGCUGGCGCCGGCUGGGCAACAUUCCGAGGGGACCGUCCCCUCGGUAAUGGCGAAGGGGACUCA", "self-cleavage": 0.705}
{"variant": "GGCCGGCAUGGUCCCAGCCUCCUCGCUGGCGCCGGCUGGGCAACAUUCCGAGGGGACCGUCCCCUCGGUAAUGGCGAAGGGGACGCA", "self-cleavage": 0.575}
